These results are taken from the supplement of paper PMC10567573.

± gives the standard deviation.

This data set is described as follows: protein stability index of a GFP-peptide fusion (GPS, HEK-293T) (PSI 1-6); higher = more stable. The settings on record: c terminus: a fixed tail appended.
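Further: 24-mer peptide tiles fused after GFP, lentivirally expressed, FACS-sorted into six equal bins by GFP/DsRed ratio, decoded by Illumina sequencing, PSI is the read-weighted mean bin number.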

With AAALDYEADGSTNNGIFQINSRRW [SPACA3], the protein stability index amounted to 3.64 ± 0.46 (treatment: DMSO) and 3.76 ± 0.35 (treatment: MLN4924 1 uM, 8 h).

With AALAAMNGRKIMGKEVKVNWATTP [TIA1], the protein stability index came out at 2.25 ± 0.32 (treatment: DMSO) and 2.3 ± 0.28 (treatment: MLN4924 1 uM, 8 h).

For the sequence AALSATGPRFLAYFGSFATVGLLW [TMEM175], the protein stability index by setting is: (treatment: DMSO) 3.01 ± 0.25; (treatment: MLN4924 1 uM, 8 h) 3.18 ± 0.72.

Regarding AANSYDLAIKAITSSAKVDMTFEE [FKBP8], the protein stability index was found to be 4.28 ± 0.24 (treatment: DMSO) and 4.36 ± 0.22 (treatment: MLN4924 1 uM, 8 h).

Regarding AAPPPPATPIVPVVPPTPPVVKKK [BRD3], the protein stability index runs as follows: (treatment: DMSO) 5.51 ± 0.21; (treatment: MLN4924 1 uM, 8 h) 5.25 ± 0.48.

Regarding ADYFATFVQREEQLQFLIRYHRFI [CDS1], the protein stability index by setting is: (treatment: DMSO) 2.2 ± 0.54; (treatment: MLN4924 1 uM, 8 h) 2.37 ± 0.27.

Turning to AEALFDFTGNSKLELNFKAGDVIF [NCF4], the protein stability index is, setting by setting: (treatment: DMSO) 2.05 ± 0.29; (treatment: MLN4924 1 uM, 8 h) 2.23 ± 0.27.

In the case of AEGLANGPDVLETDGLQEVPLCSC [EHMT1], the protein stability index is 4.75 ± 0.2 (treatment: DMSO) and 5 ± 0.31 (treatment: MLN4924 1 uM, 8 h).

On to AENYLSGGGPGDGGGADTGTGGEE [FBXO33], for which the protein stability index runs as follows: (treatment: DMSO) 5.42 ± 0.31; (treatment: MLN4924 1 uM, 8 h) 5.55 ± 0.23.

Turning to AERYKLERLAEAEKSQLIMQAEAE [FLOT1], the protein stability index runs as follows: (treatment: DMSO) 5.29 ± 0.25; (treatment: MLN4924 1 uM, 8 h) 5 ± 0.28.

As for AFCALVHSFFPDAFDYNSLSPTQR [SMTNL2], the protein stability index runs as follows: (treatment: DMSO) 2.61 ± 0.56; (treatment: MLN4924 1 uM, 8 h) 2.21 ± 0.31.

As for AFLELPHGSGGSGYPAAPPAVPFA [TBX6], the protein stability index amounted to 2.55 ± 0.15 (treatment: DMSO) and 2.69 ± 0.39 (treatment: MLN4924 1 uM, 8 h).

For AFMNQEITKAFHVRKANRIKECLS [RHOBTB1], the protein stability index is 2.41 ± 0.18 (treatment: DMSO) and 2.53 ± 0.33 (treatment: MLN4924 1 uM, 8 h).

AFREFDRDRDGRITVAELREAVPA [CABP4]: the protein stability index came out at 4.65 ± 0.37 (treatment: DMSO) and 4.58 ± 0.17 (treatment: MLN4924 1 uM, 8 h).

In the case of AGALLRLPSERLDFSMAEALNQEF [PRPH], the protein stability index reads like this: (treatment: DMSO) 3.32 ± 0.3; (treatment: MLN4924 1 uM, 8 h) 3.52 ± 0.35.

Turning to AGDGDTSNFETYPENDWDTAAPVP [PRKX], the protein stability index came out at 5.33 ± 0.33 (treatment: DMSO) and 5.14 ± 0.32 (treatment: MLN4924 1 uM, 8 h).

As for AGGATAWGDLLGEDSLAALSSVPS [SNAP91], the protein stability index runs as follows: (treatment: DMSO) 3.99 ± 0.25; (treatment: MLN4924 1 uM, 8 h) 3.96 ± 0.11.

For AGGGGFGGGSLSGGGGSRSISASS [KRT15], the protein stability index runs as follows: (treatment: DMSO) 3.89 ± 0.3; (treatment: MLN4924 1 uM, 8 h) 4 ± 0.21.

For the sequence AGGHLAVVELLLAHGADPTHRLKD [ANKRD17], the protein stability index is, setting by setting: (treatment: DMSO) 1.95 ± 0.18; (treatment: MLN4924 1 uM, 8 h) 2.11 ± 0.32.

As for AGIGRTGTFCSLDICLAQLEELGT [PTPN9], the protein stability index is, setting by setting: (treatment: DMSO) 2.23 ± 0.24; (treatment: MLN4924 1 uM, 8 h) 2.62 ± 0.64.

In the case of AGKSGTSTPTTPGSTAITPGTPPS [MAP2], the protein stability index was 5.11 ± 0.33 (treatment: DMSO) and 5.11 ± 0.44 (treatment: MLN4924 1 uM, 8 h).

For AGLLPPVPAQKFSALTFLRVDQDK [SMOC2], the protein stability index was 3.21 ± 0.21 (treatment: DMSO) and 3.3 ± 0.29 (treatment: MLN4924 1 uM, 8 h).

As for AGSIGGLFFAVGIAQYALLGYFIR [SLC22A15], the protein stability index is, setting by setting: (treatment: DMSO) 3.35 ± 0.72; (treatment: MLN4924 1 uM, 8 h) 3.4 ± 0.23.

Regarding AIGVGQVDFNTLKSIGSEPHEDHV [MATN2], the protein stability index is, setting by setting: (treatment: DMSO) 4.67 ± 0.24; (treatment: MLN4924 1 uM, 8 h) 4.88 ± 0.054.

Consider AILGEQRPRQRQRVYPKCTWLTTP [TCF25], for which the protein stability index runs as follows: (treatment: DMSO) 2.46 ± 0.38; (treatment: MLN4924 1 uM, 8 h) 2.05 ± 0.27.

In the case of AKPEALSSPKFREEAAFPGRRVNA [ELOA2], the protein stability index is 4.48 ± 0.25 (treatment: DMSO) and 4.59 ± 0.17 (treatment: MLN4924 1 uM, 8 h).

For the sequence ALKRQLPFRGDEGIFEESFIEERR [SNX12], the protein stability index was found to be 3.8 ± 0.16 (treatment: DMSO) and 4.15 ± 0.31 (treatment: MLN4924 1 uM, 8 h).

For ALLKFREDEGFVREEEDRALPENE [KCNA4], the protein stability index is, setting by setting: (treatment: DMSO) 5.31 ± 0.32; (treatment: MLN4924 1 uM, 8 h) 5.43 ± 0.19.

Consider ALQYAGDGSVLLIPRTMADQQARR [NFE2L1], for which the protein stability index reads like this: (treatment: DMSO) 3.11 ± 0.14; (treatment: MLN4924 1 uM, 8 h) 3.19 ± 0.63.

As for ANHTHTFYGHSHHSHHGHPSHQSH [C10orf62], the protein stability index was found to be 3.51 ± 0.12 (treatment: DMSO) and 3.46 ± 0.23 (treatment: MLN4924 1 uM, 8 h).

Consider APKDSAPQDLAPQVSAHHRSQESL [TBC1D10A], for which the protein stability index stood at 5.36 ± 0.2 (treatment: DMSO) and 5.38 ± 0.14 (treatment: MLN4924 1 uM, 8 h).

APQNLTRWTFEKACHPFLLGPPLV [TOR1AIP2] returned a protein stability index (treatment: DMSO) of 2.4 ± 0.21 and a protein stability index (treatment: MLN4924 1 uM, 8 h) of 2.08 ± 0.18.

AQNREPESVEQLESRIVEQENAIQ [SNX8]: the protein stability index is 5.54 ± 0.063 (treatment: DMSO) and 5.52 ± 0.19 (treatment: MLN4924 1 uM, 8 h).

AQTLAMMLQEQLDAINEEIRMIQE [PPFIA4]: the protein stability index worked out at 2.95 ± 0.29 (treatment: DMSO) and 2.7 ± 0.46 (treatment: MLN4924 1 uM, 8 h).

Regarding AQTLLRLSGVQRVESVFFGGGTPS [RSAD1], the protein stability index by setting is: (treatment: DMSO) 2.43 ± 0.27; (treatment: MLN4924 1 uM, 8 h) 2.47 ± 0.3.

Take ARAFAEKNNLSFIETSALDSTNVE [RAB11B]: the protein stability index is, setting by setting: (treatment: DMSO) 4.51 ± 0.15; (treatment: MLN4924 1 uM, 8 h) 4.54 ± 0.13.
